{"source": "the nanobody polyreactivity screen of Harvey et al. (2022)", "data": [{"experiment": "yeast display, Sf9 membrane polyspecificity reagent, FACS + sequencing; frameworks hold sequencing errors", "in_short": "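In a synthetic yeast display library (Saccharomyces cerevisiae BJ5465), nanobody expression was induced with galactose for 36–48 hours. FACS gates were set low and high (top ~1%) using anti-HA fluorescence for expression and streptavidin fluorescence for binding of the Sf9 membrane reagent. Each polyreactivity label is drawn from the gate of origin.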", "values": [{"sequence": "QVQLVESGGGLVQAGGSLRLSCAASGRTFYGYAMGWYRQAPGKEREFVAAINWSGGTTYYADSVKGRFTISRDNAKNTVYLQMNSLKPEDTAVYYCAADYYRIRRWPGYYAYDYWGQGTQVTVSS", "polyreactivity (PSR sort gate)": "high polyreactivity"}, {"sequence": "QVQLVESGGGLVQAGGSLRLSCAASGRTFYGYAMGWYRQAPGKEREFVAAITYSGGRTYYADSVKGRFTISRDNAKNTVYLQMNSLKPEETAVYYCNAYYYYVNQGRYEYGYWGQGTQVTVSS", "polyreactivity (PSR sort gate)": "high polyreactivity"}, {"sequence": "QVQLVESGGGLVQAGGSLRLSCAASGRTFYGYAMGWYRQAPGKERELVAVITRDGSTNYADSVKGRFTISRDNAKNTVYLQMNSLKPEDTAVYDCAAERLAYRVRWRYNQEDYWGQGTQVTVSS", "polyreactivity (PSR sort gate)": "high polyreactivity"}, {"sequence": "QVQLVESGGGLVQAGGSLRLSCAASGRTFYGYTMGWYRQAPGKERELVAAISRNGASTFYADSVKGRFTISRDNAKNTVYLQMNSLKPEDTAVYYCNARSWRHTDTSFEYWGQGTQVTVSS", "polyreactivity (PSR sort gate)": "high polyreactivity"}, {"sequence": "QVQLVESGGGLVQAGGSLRLSCAASGRTFYGYTMGWYRQAPGKERELVAAISTGGGSTYYADSVKGRFTISRDNAKNTVYLQMNSLKPEDTEVYYCAARGGSYSFRRYNYWGQGTQVTVSS", "polyreactivity (PSR sort gate)": "high polyreactivity"}, {"sequence": "QVQLVESGGGLVQAGGSLRLSCAASGRTFYHNTIGGYRQQPGKERELVAVINDSGTRTYYADSVKGRFTISRDNAKNTVYLQMNSLKPEDTAVYYCAARSYVGGAILGYWGQGTQVTVSS", "polyreactivity (PSR sort gate)": "high polyreactivity"}, {"sequence": "QVQLVESGGGLVQAGGSLRLSCAASGRTFYHYTMGWYTQAPGKERELVAAISSGGSTNYADSVKGRFTISRDNAKNTVYLQMNSLKPEDTAVYYCAARYRGWSGGYDYWGQGTQETVSS", "polyreactivity (PSR sort gate)": "high polyreactivity"}, {"sequence": "QVQLVESGGGLVQAGGSLRLSCAASGRTFYINAMGWYRPEPGKERELVAAISSSGGITYYADSVKGRFTISRDNAKNTVNLQMIRLKPEDTAVYYCNAPNDYSWHYDYWGQGTQVTVSS", "polyreactivity (PSR sort gate)": "low polyreactivity"}, {"sequence": "QVQLVESGGGLVQAGGSLRLSCAASGRTFYINAMGWYRQAPGKEREFVAAITDGGDRTYYADSVKGRFTISRDNEKNTVYLQMNSLKPEDTAVYYCAADRGVRYDYWGQGTQVTVSS", "polyreactivity (PSR sort gate)": "low polyreactivity"}, {"sequence": "QVQLVESGGGLVQAGGSLRLSCAASGRTFYIYAMGWYRQAPGKERELVAAITYGGGRTFYADSVKGRFTISRDNAKNTVYLQMNSLKPEDTAVYYCAASVRGKRSTYDYWGQGTQVTVSS", "polyreactivity (PSR sort gate)": "high polyreactivity"}, {"sequence": "QVQLVESGGGLVQAGGSLRLSCAASGRTFYIYAMGWYRQAPGKERELVAAITYGGGRTFYADSVKGRFTISRDNAKNTVYLQMNSLKPEDTAVYYCAATVRGKRSTYDYWGQGTQVTVSS", "polyreactivity (PSR sort gate)": "high polyreactivity"}, {"sequence": "QVQLVESGGGLVQAGGSLRLSCAASGRTFYIYAMGWYRQAPGKERELVAAITYGGGRTFYADSVKGRFTISRDNAKNTVYLQMNSLKPEDTAVYYCARGDFYYHSRYTYYTSDYWGQGTQVTVSS", "polyreactivity (PSR sort gate)": "high polyreactivity"}, {"sequence": "QVQLVESGGGLVQAGGSLRLSCAASGRTFYIYAMGWYRQAPGTERELVAAITWSGGTTYYADSVKGRFTISRDNAKNTVYLQMNSLKPEDTAVYYCAADRYGFYLESYYWGQGTQVTVSS", "polyreactivity (PSR sort gate)": "low polyreactivity"}, {"sequence": "QVQLVESGGGLVQAGGSLRLSCAASGRTFYKNAMGWYRQAPWKERELVAAISYGGGSTYYADSVKGRFTISRDNAKNTVYLQMNSLKPEDTAVYYCATQLPFRKPWHDYWGQGTQVTVSS", "polyreactivity (PSR sort gate)": "high polyreactivity"}, {"sequence": "QVQLVESGGGLVQAGGSLRLSCAASGRTFYKNTMGWYRQAPGKERELVATITRRGGTTYYADSVKGRFTISRDNAKNTVYLQMNSLKPEDTAVYYCAKDASTEKYDYWGQGTQVTVSS", "polyreactivity (PSR sort gate)": "low polyreactivity"}, {"sequence": "QVQLVESGGGLVQAGGSLRLSCAASGRTFYKYMGWYRQAPGKERELVAAIRWSGGSTYYADSVKGRFTISRDNAKNTVYLQMNSLKPEDTAVYYCAAGKQAPAVNYGYYYWGQGTQVTVSS", "polyreactivity (PSR sort gate)": "low polyreactivity"}]}]}
